By Kd is commonly meant the concentration at which binding is half-saturated.

The target in the experiment is T1, recombinant human C3d (human, UniProt P01024 996-1303, limits assumed).
T1 construct: domain: C3d; The Biacore paragraph says only C3d; also called recombinant C3d
As to the kind of experiment: BIAcore SPR, C3d immobilized on the chip, antibody at 10, 30 and 90 nM in flow, 1:1 Langmuir fit. An excerpt: The binding affinity of the anti-C3d/C3dg antibodies to C3d was further tested by BIAcore analysis.

T1 sequence (P01024 996-1303 limits assumed): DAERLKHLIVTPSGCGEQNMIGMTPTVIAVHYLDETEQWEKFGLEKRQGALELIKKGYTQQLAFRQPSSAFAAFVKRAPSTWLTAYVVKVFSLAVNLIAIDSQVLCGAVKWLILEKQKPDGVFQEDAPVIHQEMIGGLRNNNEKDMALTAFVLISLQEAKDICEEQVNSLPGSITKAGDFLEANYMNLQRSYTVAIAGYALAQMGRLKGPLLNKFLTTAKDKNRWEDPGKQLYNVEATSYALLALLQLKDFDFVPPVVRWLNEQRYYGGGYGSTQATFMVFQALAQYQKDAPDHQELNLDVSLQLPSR

B1: mouse monoclonal anti-C3d antibody 3d29, produced by hybridoma cell line 3d-29/5/2 (ATCC PTA-11000) (antibody, V domains shown)
VH: EVQLQQSGPVLVKPGASVKMSCKASGYTFTDYYMNWVKQSHGKSLEWIGVINPYNGGTSYNQKFKGKATLTVDKSSRTAYMELNSLTSEDSAVYYCSRGGPYWGQGTTLTVSS
VL: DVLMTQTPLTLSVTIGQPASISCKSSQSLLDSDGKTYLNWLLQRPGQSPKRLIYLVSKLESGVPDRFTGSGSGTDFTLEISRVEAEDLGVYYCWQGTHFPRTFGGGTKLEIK
notes: Whole mouse IgG purified on protein G; also called mAb 3d29; clone 3d29
As to B1, the Kd came to 1.06 nM.

The record behind these values is patent US20130078245A1 (REGENTS OF THE UNIVERSITY OF COLORADO A BODY CORPORATE, published 2013).
